Drawing on patent US20060062761A1, this text covers IC50 for one substance.

The target of the assay is HLA-DR DRB1*0701 on fixed MOU (MANN) cells (human). Nature of the assay: competition.

As usually defined, the IC50 is the concentration at which inhibition is half-maximal. A higher IC50 goes with lower potency. The substance “Tetanus toxin 828-840 (from UniProt P04958 828-840)” had an IC50 of 7 µM.
